Measurements from US20170312350A1.

B1: TCR R10P1A7 (TCR, V domains shown)
V domain 1: GEDVEQSLFLSVREGDSSVINCTYTDSSSTYLYWYKQEPGAGLQLLTYIFSNMDMKQDQRLTVLLNKKDKHLSLRIADTQTGDSAIYFCAESKETRLMFGDGTQLVVKP
V domain 2: GAVVSQHPSWVICKSGTSVKIECRSLDFQATTMFWYRQFPKQSLMLMATSNEGSKATYEQGVEKDKFLINHASLTLSTLTVTSAHPEDSSFYICSARAGGHEQFFGPGTRLTVLE
B2: TCR R10P1A7 expressed from lentiviral construct 1863R (MSCV-R10P1A7A-2A-R10P1A7B-WPRE) (TCR, V domains shown)
V domain 1: B1 V domain 1
V domain 2: B1 V domain 2
B3: TCR R10P1A7 expressed from lentiviral construct 1864R (MSCV-R10P1A7B-2A-R10P1A7A-WPRE) (TCR, V domains shown)
V domain 1: B1 V domain 1
V domain 2: B1 V domain 2

Tests used:
[1] = biological target: MHC/IGF2BP3-001 tetramer (human); assay: tetramer staining, flow cytometry of RNA-electroporated CD8+ T-cells
MHC/NYESO1-001 tetramer = assay: tetramer staining, flow cytometry of RNA-electroporated CD8+ T-cells (unrelated-peptide tetramer)
[2] = biological target: MHC/IGF2BP3-001 tetramer (human); assay: tetramer binding by flow cytometry, lentivirally transduced primary T-cells, donor 1
[3] = biological target: MHC/IGF2BP3-001 tetramer (human); assay: tetramer binding by flow cytometry, lentivirally transduced primary T-cells, donor 2

Binder	% IGF2BP3-001 TET-positive primary CD8+ T-cells [1] [%]	% NYESO1-001 TET-positive primary CD8+ T-cells (MHC/NYESO1-001 tetramer) [%]	% of CD3+ Tet+ [2] [%]	% of CD8+ Tet+ [2] [%]	% of CD3+ Tet+ [3] [%]	% of CD8+ Tet+ [3] [%]
B1	6.78	1.53				
B2			2.3	3.93	0.99	1.79
B3			15.2	22	8.12	11.7
